Target: Ago2 PAZ domain (human, UniProt Q9UKV8 227-371)
Assay: ITC

Sequence of Ago2 PAZ domain (Q9UKV8 227-371): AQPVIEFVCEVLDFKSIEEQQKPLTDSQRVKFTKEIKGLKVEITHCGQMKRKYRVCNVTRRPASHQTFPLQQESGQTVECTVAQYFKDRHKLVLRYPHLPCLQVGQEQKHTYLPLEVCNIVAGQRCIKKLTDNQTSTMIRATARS

B1: native RNA (ssRNA)
RNA: AGAGUCACGCUUU
Kd: 600 nM
